Earlier results, collected in publication PMC7568816 (Gastroenterology Research and Practice, 2020).

Details: due to proteolytic cleavage by dipeptidyl peptidase IV; ref [15]
Method: Endogenous GLP-2 is composed of 33 amino acids and has a short half-life of about 7 minutes due to proteolytic cleavage by dipeptidyl peptidase IV [15]. Chemical substitution of the amino acid alanine to […] at position 2 extends the half-life of GLP-2, and this molecule (teduglutide) is approved for the treatment of short bowel syndrome.

Endogenous GLP-2: enteroendocrine hormone composed of 33 amino acids
half-life: about 7 minutes
